18 sequences from a protein production outcome set (Wang et al. 2014) can be followed below.

The data set in a line: label from the status in PepcDB records.
For the sequence “MKVVLAAIHPVPSPQAVPLANAFLKAYLGTDEELAARVAVTLCDFLRSTPADVCAAEILAHEPDAVGFSLYLWNTEESGRIAAELRRNRPGITIFAGGPQATADPLGTLTGGGYDFLILGEGEVPFLEVTARLADGRPFRGAPGTAWLDDGKLASRPQKPVALLDTIPSPFLSGIIEPGRYGGLLWQLSRGCDFACEYCFDYKGTKGVRRFSLERVDAELDFLVRHNVPQVFVLDSTFNVDAKRAKTILRMIRKRAPHIHFHFEVRSEFLDREMARLFAGITCSLQIGLQSADPAILKGIRRHFDPDDFRKRVALLNESGAVFGFDLIYGLPGDSLAGFRQSLDFALALYPNHLDIFPLAVLPGTPLAARAAQAGLDHLPAPPYALTATPTFPAPDMKRAARLAGACDIFYSRGKAVAWFNGVIAPLSLTPAEFLDAFGGWLARQGIEAREEALGDEAIWSLQRSFLAHIFADRRVRRLLPVALDLVDYHYHYAAALLAPPPELPTDRSLAGLNILDQVVCLAPSTRLARFSYEITDLLEAGNADLREICACFSPSPSWAVIYPRGNDIFTESLLESYFLLLEGLDGCCRAGDVVARLALSGEGAAEFLKFAAAEGIVTVRNCP”, the protein production result is given as “failed”.

For “MKVYIETMGCAMNSRDSEHLLSELSKLDYKETNDPKTADLILINTCSVREKPERKLFSEIGQFAKIKKPNAKIGVCGCTASHMGADILKKAPSVSFVLGARNVSKISQVIHKEKAVEVAIDYDESAYAFEFFEKKAQIRSLLNISIGCDKKCAYCIVPHTRGKEISIPMDLILKEAEKLANNGTKELMLLGQNVNNYGARFSSEHAKVDFSDLLDKLSEIQGIERIRFTSPHPLHMNDGFLERFAKNPKVCKSIHMPLQSGSSAVLKMMRRGYSKEWFLNRVERLKALVPEVGISTDIIVGFPNESDKDFEDTMEVLEKVRFDTLYSFIYSPRPFTEAGAWKERVPLEVSSSRLERLQNRHKEILEEKAKLEVGKTHVVLVENRREMDNQIVGFEGRSDTGKFIEVTCKEKRNPGELVKVEIISHSKGRLMAATKGN”, the protein production entry is “failed”.

With “MKWEMGLQEEYIELIKAGKKKIEGRLYDEKRRQIKPGDIIIFEGGKLKVKVKGIRVYSSFKEMLEKEGIENVLPGVKSIEEGVKVYRQFYDEEREKKYGVVAIEIEPIE”, the protein production result was “not failed”.

Regarding “MKWIEIYEKLVNIDTGPDLPLEGKLRRTSFLTEILEDLGFRVEKREAAYVAFRGKPPYVTLIGHLDTVFPEGESKRRPFTIEGNIAKGPGVCDMKGGVVILLESLKRFLQQNDTDLCVVLNVDEELGSPLSGEVFKEVAGMSSHCLSFEPGRENGELISSRKGIISLWLFARGKKGHASRLDEGANAIVELAFKVVELTSLNGRFPNLTLNPTIVKGGAESNVTPDKAEVYFDVRYYDDKEYEFLEETLKRLSAVHPEANVSYTLKLRRLPMKEDPDFVNIVKMSAEEIGMTVSFVRATGGGDVAFFSQNGVPSIDGLGIPGGKMHSEDEYARLDQFEDRVNLVVHLLRKLGGEKNVR”, the protein production result is “not failed”.

With “MKWIMKLRWAILAFWLAAAVVLMFIAPPMADLVREKGELKLPDGYPSSLATEMQKKHNPDDKGSAYIAVYTADHKLTGTELNDIQKSLDSIEKDKDELHVTNVLSSFNQPELKDKFLAKDGKTMVASLTVDDTDASVKSIRNALDKKMDVKGVDTYLTGNKLIQEDVVQGSEDGLHKTEGITVVFILVVLFLVFRSAVAPFIPLITVGISYLVAQSTVAFLIDIFNFPVSTYTQIFMVCIMFGIGTDYCILLMSRFKEEMGAGLNPREAVHATYRTAGKTVIYSGVAVLVAFTSLYFVQFDLYRSAVAVGVGIVVLLAALYTLVPFFMSTLGTHLFWPLNKNISHKENKIWGAAGKFTFARPWIALLIVAAITLPPILLHTGTESFNSLDEISDKYPSKKGFEIVSDSFGAGQVAPTQIFIENDDNMRTTDYIAQIEKISDDLSHLKGIDMVMSASRPAGKRVDDIYIKNQAGQVNDGVGQATDGVGEVKKGLDSASSELKKSEPALDKAVAGVGDLQKGTVATQEGINQLQTALAQIQKGIESGATGAGDLKQGVAEAKSQLATLQNGEAQIQAGYAEIQKNLQNVADQLKGFENPSSQAIDTSKLEEQFKKIGASFQAFAAAHPEVRNDPRFQKLAADIQGLETAGNELKTSAGQQMAALQAKMKELNQGIQQLATAMNQLNEQSKQISDGLSAFSTGLGQIETGLDQLEKGLNQAAVGQGQVVSKMPEVSNALTQIAAGQGALKDGFAGISGQMGQLTDGLTSGADGLGKVESGLNTANGLIDDWSKVPYASSGIYVPDALLKNADFQKVLDQYISSDGKLATINVILTKNPYSNEAMDSIDDINDQLAASMKGTKLENAKIGIGGMTSANYDTRDMSTADYHLVLVIVLASVFVTLVIVLRSLVMPIYLIASLVLTYFAALGFAEIIFMRILGYSGLTWATPFFGFVVLVALGIDYSIFLMSRFNEYNGLSVRDRMIKAMKNMGGVIFSAVIILGGTFAAMMPAGVLSLLEIATVVLIGLVLYAVVILPLFVPVMVKLFGRGNWWPFITRKGDHQENVPPKK”, the protein production result was “failed”.

Take “MKWKKSLAGLSSYKPGKREEEVMAELGLTKITKLSSNENPLGTSKKVAAIQANSSVETEIYPDGWASSLRKEVADFYQLEEEELIFTAGVDELIELLTRVLLDTTTNTVMATPTFVQYRQNALIEGAEVREIPLLQDGEHDLEGMLNAIDEKTTIVWICNPNNPTGNYIELADIQAFLDRVPSDVLVVLDEAYIEYVTPQPEKHEKLVRTYKNLIITRTFSKIYGLASARVGYGIADKEIIRQLNIVRPPFNTTSIGQKLAIEAIKDQAFIGECRTSNANGIKQYEAFAKRFEKVKLYPANGNFVLIDLGIEAGTIFSYLEKNGYITRSGAALGFPTAVRITIGKEEDNSAVIALLEKLL”: the protein production result is “not failed”.

For “MKWLLVASAALYLFGSFRRPLFALGLGAGLAYLALRGISLGRLPLVGPHDTIAFFSASIGLMTLPFLFSPSLRNSSAFPWATGGTAAVFALFSLAFPALAMPLPPILNTLWFELHVALAFFAYALFTIGAIMGVLFLAGGERRLLDLQYRAALVGYTFFSGSMVAGGIWGYYAWGTYWLWTPKELWTSILWIFYTFWLHLRLRGAGGDRLLAWTGILGFGVMLFTYLGVSMLMKSSHSF”, the protein production result is given as “failed”.

On to “MKYAIREYKGKNVDLSKLSSIIENYFREENFVTQSSQHPRGYVIQAKKGGIFRTILGMDRAFTIVLVGDSSDFKVQIGVGKWLQDLGVAAIEAFLITPVVAFVEVPESLWSFELEHEFWQFLENQINLGIQ”, for which the protein production entry is “failed”.

On to “MKYKLLVLDVDGTLLNDEKEITPRTLATLLKVQQMGVHIVLASGRPTYGILPLAKKLELGNYGGYILSYNGAQVINAKNGEVLLERRINPEMLPYLEKKARKNGFAIFTYTEDRMIADQADNEHILQEAFLNRMELIEEPEFSVAVDFAPSKCMLVSDDEEALIGLEEHWKKRLNGALDVFRSEPYFLEVLPCGIDKSTSLGALLSHLDITPEEIIVIGDGVCDVSMIQFAGLGIAMGNAQDSVKVCADVVTASNEEDGVALAVEKAILSEIRPAEIPLDQLNERARHALMGNLGIQYTYASEDRVEATMPVDERTRQPFGILHGGATLALAETVAGLGSMILCQPDEIVVGMQVSGNHMSSAHEGDTVRAVGTIIHKGRSSHVWNVDVFTSTDKLVSSIRVVNSILKKR”, for which the protein production result is given as “failed”.

Take “MKYLKNKIIHFLIFGGIYMDVEVLARAHGQQLVGYEGIKPLSLMGFTSLWMFLVGGLCGVIIGGLNDRPGYYNLKMWKQVLIGGTTITLVELFSGIFFNLYLGLHLWDYSKDRFNFMGQIELKNCIWWYVLPILIIWLDDVLSCYFYGDDRPPSLIMYLVKLVTLR”: the protein production result was “failed”.

Turning to “MKYLPLYPILARYPFLRIASRVFSFNIEDELRKFLDTVEAAKRIVDKAIDGRVEYDRFTDESEFFCLGCEENCYDCQKRGTLEGCDLCMGCFENCSLYYPREAVERFYTNAKLSLLTYIASRMIVSAMEDWVRMRYAVNEASYYSRLLREDVEESGKEPIVRLVAIDLGAKLKGWKMHVSTFVRVSARIKDDKWRLVNRKLRNGWVETTKAEVLRGLEELLRMKLFEKVPVSEAVSEAVRELSRKAKRESEKFAMDLGEVDLNCLPPCMREILSELQRGMNIPHTARFAITSFLLNIGMTVDEIIALFKSAPDFDDEKTRYQVEHIAGERGKGAEYTSPSCDTMRTYSNCVADCRVSHPLIYYKKCKSKSLEHHHHHH”, the protein production entry is “not failed”.

As to “MKYQNEGQHRSPWALIVFLALSMAVTSPATRAQSSDLPSIGGSGGLISGQMEADIGQQVMASIRRSAPQLQDPLVYDYLSAIIYRLVPSAPLDNRDLKLVLIDSPAINAFAVPGGVVGVNGGLFLNAATEQQFASVLAHELAHLSQRHFARRMQQQETSAPLTLAGMIAGIVLSAVTQSDIGIAAIAGTQAMAVQNMLAYSRSHEQEADRVGMDILASAGMDPRGMPEMFEIMMRQNRLQGNRLPEYLSTHPLTQNRVADTRNRAEQYPDTRVQDGQEYHLVRSRLQVHYSESPETAIETFEAYLAREDAQRNDAIRYGLAVAYQESRRYEKAEQLMRELLKANPGRITFQVSLAEVLLSQKRYADARALMQEALARNPGNYPITSTLAAIEIADGNGAAAADYLRELTRRLPSQEQLWLRLAEAEGMARNIVGVHRARAEYDVLMGDLKSAQRQLRQAQEKLPAGSAERQVVSERLGELTNRLQAREAG”, the protein production result is reported as “failed”.

For the sequence “MKYRQWVLGAGFTLSVGLSSVAHAFSIPQPANEIAASKFVHIQVQAEQGDADAQFLLGLMFLSGRYVQQEVPSGLHWITLAAEQQHEKAQQTLADLSFEGQLIKRDLAVAERWYKDMGERGNRWAQFRLGFIYASGGDGVKRNCGKAVEQFTRVGDDIALGNVAWILATCPEAEYRDGNKALELSLQLLKVNENDPTNLDNLAAAYAEVGDFGAAVSTQQKAIAALKMTAEATKTDEFKQRLHSYEQKRAYRETLRLLE”, the protein production entry was “failed”.

For “MKYSEAQQGRVFVIRLEDGDIFHEEIERFAKEKGIERAYLNVVGGADKESKLVVGPEESRTYPVNPMEHELYDAHEIVGTGTLFPDDTSAPVVHLHMACGREENTVTGCVRNGVKVWHVMEVILVELLGTQARRLPDKATGFKLLVPLEHHHHHH”, the protein production entry was “not failed”.

“MKYYPFSYYRSINAADLYENIKAYTVLDVREPFELIFGSIANSINIPISELREKWKILERDKKYAVICAHGNRSAAAVEFLSQLGLNIVDVEGGIQSWIEEGYPVVYGRESAEDLEHHHHHH”: the protein production entry is reported as “not failed”.

As to “MLALKKKSVKAAFEALIPKIMEEGTEMVSEDGQKCKELMNTIIEITDPSDKSISEKYPLGERAVESYTEQLLHGSAATFVYDYHERIFEYPSDKKELKNDQIDYIVNKLKEQINSRRAIAITWNPYIDQTVKDVPCLQIVQFLIRDNKLYQTVLFRSNDAFLAFHANAIGLIALGEMVAEKLEIELAKYTHHSVSMHVYSERDIDALKKF”, the protein production result is on record as “not failed”.

As for “MLALKSSELEGIATSLTAVAGALHESNTDRLQSWQQLETMTSASSLIQGFIKLVDYNRPTVNIVEQMHKTASTLFNTADFLRTLEGYVDVLEKQADKSITLTVMLRYIASLSSLLDLMCAREINALCTAITPEPLKHLGDFGTLPASAIHEFHLVNAPPEIRALAEAHPDMQILEAGDGSLVASFGDIDRATTVTTIVAGVGSSNPEGWNTYVDRARTVSASTGSATVLWLGYQAPASIPAAVSGAAANRAAADLQRFQAALQSRNPHQRKVVMGYSYGSTVVGKAASSGELSADALVLVGSPGAGVSHSSQLGAPVYAVTGSADPIGFAGTQYDGIHGTDPTAALFGATVWDSPSTHSGYWNDQEFLGNVAEVVRGK”, the protein production result is “failed”.

As to “MLDAAIKALTQILSPPMRSILWRSVGFALALIAVAAIGLQRLLSWAATSSELWAEAALGGFQTPLNILSWVLSIAAGLGIVVGAVFLMPAVTSLVAGIFVDEAAEHVERESYPHEAPGVALPIGLATWETVKTALLTILVYLVALPFLFVAGAGAIVFFVATAWLLGREYFELAAMRFRTAPEAKAMRRDNATTVFIGGLIIAAFVSIPIVNLATPLFGMAFMVHLHKRLSGSRPEVLAPDQRSMLR”, the protein production entry was “failed”.
